Assay results published in patent US20240166767A1 (SCIRHOM, published 2024).
Where a chain is given by its changes, count along the chain named.

T1: endogenous human iRhom2 (human, UniProt Q6PJF5 1-856)
T1 sequence: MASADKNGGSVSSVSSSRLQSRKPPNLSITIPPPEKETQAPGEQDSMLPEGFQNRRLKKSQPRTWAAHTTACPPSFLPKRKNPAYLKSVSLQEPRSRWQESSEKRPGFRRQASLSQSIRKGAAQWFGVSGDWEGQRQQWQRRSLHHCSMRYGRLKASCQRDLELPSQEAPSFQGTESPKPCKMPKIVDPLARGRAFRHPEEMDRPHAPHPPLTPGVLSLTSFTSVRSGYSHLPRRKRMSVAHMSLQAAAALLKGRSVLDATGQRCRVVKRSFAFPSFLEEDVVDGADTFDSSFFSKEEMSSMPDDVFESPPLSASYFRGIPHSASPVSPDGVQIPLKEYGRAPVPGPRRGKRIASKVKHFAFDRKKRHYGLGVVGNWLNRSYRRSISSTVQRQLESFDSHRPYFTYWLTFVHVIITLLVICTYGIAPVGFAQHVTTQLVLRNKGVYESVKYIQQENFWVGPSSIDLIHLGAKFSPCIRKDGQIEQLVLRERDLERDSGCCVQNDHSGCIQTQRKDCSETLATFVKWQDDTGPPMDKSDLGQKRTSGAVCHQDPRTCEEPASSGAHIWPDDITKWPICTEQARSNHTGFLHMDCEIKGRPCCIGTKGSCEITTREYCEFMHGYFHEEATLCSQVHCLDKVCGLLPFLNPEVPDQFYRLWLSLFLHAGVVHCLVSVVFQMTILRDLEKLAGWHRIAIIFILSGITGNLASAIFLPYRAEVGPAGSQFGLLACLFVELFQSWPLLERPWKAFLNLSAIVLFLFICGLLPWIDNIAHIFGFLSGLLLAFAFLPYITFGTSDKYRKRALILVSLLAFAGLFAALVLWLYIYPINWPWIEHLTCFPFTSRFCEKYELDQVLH

T2: human iRhom1 full length wild type C-terminally tagged with 3 consecutive copies of the T7 epitope (human, UniProt Q96CC6 1-855)
T2 construct: also called hiR1-FL-WT-T7; human iRhom1 variant
T2 sequence: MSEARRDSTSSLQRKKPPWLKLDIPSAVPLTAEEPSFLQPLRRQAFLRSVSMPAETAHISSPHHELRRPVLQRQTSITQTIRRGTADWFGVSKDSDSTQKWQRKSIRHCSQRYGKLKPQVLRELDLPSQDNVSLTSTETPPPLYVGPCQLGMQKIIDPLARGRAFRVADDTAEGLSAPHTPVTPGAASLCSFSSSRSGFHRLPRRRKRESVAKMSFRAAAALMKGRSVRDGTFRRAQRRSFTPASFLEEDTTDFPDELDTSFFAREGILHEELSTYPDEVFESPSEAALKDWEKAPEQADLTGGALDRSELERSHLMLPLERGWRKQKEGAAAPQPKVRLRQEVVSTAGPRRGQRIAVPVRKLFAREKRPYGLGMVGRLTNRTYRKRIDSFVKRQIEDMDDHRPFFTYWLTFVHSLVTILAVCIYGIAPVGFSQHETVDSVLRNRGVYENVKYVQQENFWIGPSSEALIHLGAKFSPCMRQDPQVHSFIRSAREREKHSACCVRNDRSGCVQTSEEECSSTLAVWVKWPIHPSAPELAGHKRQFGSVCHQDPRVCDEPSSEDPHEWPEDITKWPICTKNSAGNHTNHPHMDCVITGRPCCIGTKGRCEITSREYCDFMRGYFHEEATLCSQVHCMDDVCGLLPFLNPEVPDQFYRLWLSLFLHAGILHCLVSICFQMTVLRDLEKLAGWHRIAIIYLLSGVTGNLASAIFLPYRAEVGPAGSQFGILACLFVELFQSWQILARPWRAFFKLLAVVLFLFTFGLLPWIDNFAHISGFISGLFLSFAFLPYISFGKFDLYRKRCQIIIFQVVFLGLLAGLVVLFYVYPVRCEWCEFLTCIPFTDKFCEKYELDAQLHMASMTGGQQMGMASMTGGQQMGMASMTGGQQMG

B1: humanized antibody 16-B-03 (antibody, V domains shown)
VH: QVTLRESGPALVKPTQTLTLTCTFSGFSLSTFALGVGWIRQPPGKALEWLAHIWWDDDKYYNPALKSRLTISKDTSKNQVVLTITNMDPVDTATYYCARITTYYYGMDYWGQGTLVTVSS
VL: EIVMTQSPDFQSVTPKEKVTITCRASQSIGNHLHWYQQKPDASPKLLIKYASQSISGVPSRFSGSGSGTDFTLTINSLEAEDAATYFCQQSYQWPLTFGQGTKLEIK
notes: Tested as whole humanized antibody produced in CHO cells and detected with anti-human IgG; the general methods speak of human IgG1/Kappa; also called clone 16-B-03
B2: humanized antibody 16-B-05 (antibody, V domains shown)
VH: B1 VH with D57E
VL: B1 VL with Q93N
notes: Tested as whole humanized antibody produced in CHO cells and detected with anti-human IgG; the general methods speak of human IgG1/Kappa; The printed LCVD reads SRESGSG where the printed cDNA encodes SRFSGSG; also called clone 16-B-05

Legend:
[1] = biological target: T1, endogenous human iRhom2; assay: cell-based or functional assay
[2] = biological target: T2, human iRhom1 full length wild type …; assay: FACS on MEF-DKO-hiR1-FL-WT-T7 cells
Procedure: In brief, in addition to immortalized MEF-DKO-EV control cells and MEF-DKO-hiR2-FL-WT-T7 cells (as already described in example 3), MEF-DKO-hiR1-FL-WT-T7 cells were harvested with 10 mM EDTA in PBS, washed and resuspended in FACS buffer (PBS, 3% FBS, 0.05% sodium azide), and seeded in Nunc U-bottom 96-well plates (Thermo Fisher Scientific, USA) at approximately 3×10⁵ cells per well. To pellet cells and remove supernatants, the plates were centrifuged at 1,500 rpm and 4° C. for 3 minutes. For primary staining, cells were resuspended in 100 μl per well of either FACS buffer alone (controls), mouse monoclonal anti-T7 IgG (Merck Millipore, USA) at 3 μg/ml FACS buffer or the humanized antibodies 16-B-03, 16-B-05, 16-B-07, 23-B-04, 42-B-02, 42-B-04 of the invention also at 3 μg/ml FACS buffer and incubated on ice for 1 hour. Afterwards, plates were centrifuged at 1,500 rpm and 4° C. for 3 minutes and washed twice with 200 μl per well of FACS buffer. For secondary staining of previous anti T7 staining, cells were spun down and resuspended in 100 μl per well of PE-conjugated goat anti-mouse IgG F(ab′)2 detection fragment (Dianova, Germany) diluted 1:100 in FACS buffer. For secondary staining of previous staining with humanized antibodies of invention, cells were spun down and resuspended in 100 μl per well of PE-conjugated goat anti-human IgG F(ab′)2 detection fragment (Dianova, Germany) diluted 1:100 in FACS buffer. Protected from light, the cell suspensions were incubated on ice for 1 hour. Plates were then centrifuged at 1,500 rpm and 4° C. for 3 minutes and washed three times with 200 μl per well of FACS buffer. Finally, cells were resuspended in 150 μl per well of FACS buffer and analyzed using a BD Accuri™ C6 Plus flow cytometer (Becton Dickinson, Germany).

Binder	percent inhibition of LPS-induced release of TNFα from PBMCs from healthy donors (ELISA, antibody 3 µg/ml) [1]	percent inhibition of LPS-induced release of TNFα from THP-1 cells (ELISA, antibody 3 µg/ml) [1]	percent inhibition of PMA-induced release of HB-EGF from PBMCs from healthy donors (ELISA, antibody 3 µg/ml) [1]	percent inhibition of PMA-induced release of HB-EGF from THP-1 cells (ELISA, antibody 3 µg/ml) [1]	percent inhibition of PMA-induced release of HB-EGF from U-937 cells (ELISA, antibody 3 µg/ml) [1]	percent inhibition of PMA-induced release of IL-6R from PBMCs from healthy donors (ELISA, antibody 3 µg/ml) [1]	percent inhibition of PMA-induced release of IL-6R from THP-1 cells (ELISA, antibody 3 µg/ml) [1]	percent inhibition of PMA-induced release of IL-6R from U-937 cells (ELISA, antibody 3.33 µg/ml) [1]	percent inhibition of PMA-induced release of TGFα from PC3 cells (ELISA, antibody 10 µg/ml) [1]	percent inhibition of PMA-induced release of TNFα from U-937 cells (ELISA, antibody 3.33 µg/ml) [1]	binding result [2]
B1	74.2%	75.1%	69.7%	80.2%	99.2%	75%	75.6%	79.6%	15.9%	89.8%	no binding (tested: 3 µg/ml)
B2	73.5%	78.7%	74.8%	83%	99.7%	79%	74%	81.7%	23.8%	89%	no binding (tested: 3 µg/ml)
